Source: patent US12152088B2, “Co-assembly peptides, nanostructures, and methods of making and using the same” (University of Florida Research Foundation, Incorporated, priority 2016, dated 2024)

Key:
Assay type in all cases: physicochemical
[1] = Nanofiber sedimentation, fusion protein integration into CATCH nanofibers; settings: 500 μM CATCH(4/4) or CATCH(6/6) nanofibers
Method: Briefly, 500 μM CATCH(4/4) nanofiber sedimentation in the presence of (FIG. 42A) ThT, (FIG. 42B) CATCH(6-)GFP, (FIG. 42C) mCATCH(6-)GFP. […] 500 μM CATCH(6/6) nanofiber sedimentation in the presence of (FIG. 42E) ThT, (FIG. 42F) CATCH(6-) GFP, (FIG. 42G) mCATCH(6-)GFP.

[2] = Circular dichroism (secondary structure); settings: peptide incubated alone; CD maxima at 220 nm, minima at 200 nm
Method: Circular Dichroism. Circular Dichroism was performed on an AVIV 202 spectrometer. Peptides were prepared in 1× PBS at 500 μM, unless stated otherwise. Samples were run 3 times, averaged, and converted to mean residue ellipticity. All data reported was for dynode values <500 V.

[3] = Macroscopic hydrogel formation; settings: aqueous buffered solutions of 12 mM
Method: Macroscopic Hydrogel Formation. A 12 mM stock solution of CATCH(−) was prepared by dissolving dry peptide in 1× PBS and adjusting the pH to ˜7.6 with ammonium bicarbonate (Fisher). A 12 mM stock solution of CATCH(+) was prepared by dissolving dry peptide in 1×PBS and adjusting the pH to ˜7.2 with hydrochloric acid (0.5 N Fisher). CATCH peptide stock solutions were combined at a 1:1 (v/v) ratio in a 0.2 mL glass vial (Thermo), and the vial was gently swirled for 2 min until the hydrogel formed. The hydrogel was stained with red food coloring to aid visualization. Hydrogel images were recorded using a digital still camera.

[4] = Protein incorporation / retention in macroscopic hydrogels
Method: Protein Incorporation into Macroscopic Hydrogels. Hydrogels were prepared as described above, except 1.5 μM CATCH(−)GFP or mCATCH(−)GFP was added to the 12 mM CATCH(−) solution. Immediately after hydrogel formation, fluorescence was visualized by placing the glass vials on a SafeImager 2.0 transilluminator (Invitrogen) and recording images with a digital still camera. 800 μL of PBS was then carefully overlaid on top of hydrogel. The samples were then incubated for 48 hours to evaluate the protein incorporation within the hydrogel. At various time points, fluorescence in the buffer supernatant was visualized by placing the glass vials on a SafeImager 2.0 transilluminator (Invitrogen) and recording images with a digital still camera. At the end-point, buffer supernatant was carefully removed by decanting and fluorescence was visualized by placing the glass vials on a SafeImager 2.0 transilluminator (Invitrogen) and recording images with a digital still camera.

Substance | integration into CATCH nanofibers [1] | secondary structure [2] | flow behaviour / hydrogel formation [3] | hydrogel fluorescence after incubation ([4]; CATCH hydrogels under volumetric excess of 1× PBS for 48 h) | GFP in the buffer layer over hydrogels ([4]; excess buffer, up to 48 h)
Ac-EQEFEFEFEQE-Am (Ac-EQEFEFEFEQE-NH2) [CATCH(−)] | integrates into both CATCH(6/6) and CATCH(4/4) nanofibers | predominantly random coil | free flowing | – | –
Ac-QQKFKFKFKQQ-Am (Ac-QQKFKFKFKQQ-NH2) [CATCH(+)] | – | predominantly random coil | free flowing | – | –
CATCH(−)GFP: recombinant fusion of CATCH(−) and superfolder green fluorescent protein (GFP) | – | – | – | retained their fluorescence | no GFP was detected
